The results in this text go back to PMC6328252 (Chembiochem : a European journal of chemical biology, 2017).

Data set [1] addresses T1, PA1618 (Pseudomonas aeruginosa, UniProt Q9I3A4). The data set can be described thus: steady-state competitive inhibition of benzoyl-CoA hydrolysis. Format: biochemical.
For data set [2], the target named is T1, PA1618. The data set can be described thus: X-ray crystal structure. Format: biochemical.
Data set [3] deals with CC(C)(COP(=O)(O)OP(=O)(O)OC[C@H]1O[C@@H](n2cnc3c(N)ncnc32)[C@H](O)[C@@H]1OP(=O)(O)O)[C@@H](O)C(=O)NCCC(=O)NCCSC(=O)c1ccccc1. Briefly: steady-state kinetics. Type of data set: biochemical, Pseudomonas aeruginosa. Particulars: pH 7.5; 25.0 °C.
Data set [4] concerns the target T1, PA1618. The data set can be described thus: X-ray crystal structure. Format: biochemical. This is another data set of the same source.
Substrate in data set [5]: CC(C)(COP(=O)(O)OP(=O)(O)OC[C@H]1O[C@@H](n2cnc3c(N)ncnc32)[C@H](O)[C@@H]1OP(=O)(O)O)[C@@H](O)C(=O)NCCC(=O)NCCSC(=O)c1ccc(O)cc1
The data set can be described thus: purified protein. Format: biochemical, Pseudomonas aeruginosa. The note with it: pH 7.5; 25.0 °C.

Substrate in data set [6]: CC(C)(COP(=O)(O)OP(=O)(O)OC[C@H]1O[C@@H](n2cnc3c(N)ncnc32)[C@H](O)[C@@H]1OP(=O)(O)O)[C@@H](O)C(=O)NCCC(=O)NCCSC(=O)/C=C/c1ccc(O)cc1
The data set can be described thus: steady-state kinetics. Type of data set: biochemical, Pseudomonas aeruginosa. Particulars: pH 7.5; 25.0 °C.

Substrate in data set [7]: CCCCCC(=O)SCCNC(=O)CCNC(=O)[C@H](O)C(C)(C)COP(=O)(O)OP(=O)(O)OC[C@H]1O[C@@H](n2cnc3c(N)ncnc32)[C@H](O)[C@@H]1OP(=O)(O)O
Briefly: steady-state kinetics. Particulars: pH 7.5; 25.0 °C. Type of data set: biochemical, Pseudomonas aeruginosa.

Substrate in data set [8]: CC(C)(COP(=O)(O)OP(=O)(O)OC[C@H]1O[C@@H](n2cnc3c(N)ncnc32)[C@H](O)[C@@H]1OP(=O)(O)O)[C@@H](O)C(=O)NCCC(=O)NCCSC(=O)c1cc(O)c2ccccc2c1O
Briefly: steady-state kinetics. Type of data set: biochemical, Pseudomonas aeruginosa. The note with it: pH 7.5; 25.0 °C.

Substrate in data set [9]: CC(C)(COP(=O)(O)OP(=O)(O)OC[C@H]1O[C@@H](n2cnc3c(N)ncnc32)[C@H](O)[C@@H]1OP(=O)(O)O)[C@@H](O)C(=O)NCCC(=O)NCCSC(=O)c1ccccc1
Briefly: steady-state kinetics. Type of data set: biochemical, Pseudomonas aeruginosa. The note with it: pH 7.5; 25.0 °C. The source holds these as a separate data set.

Consider `CCCCCCCCCCC(=O)SCCNC(=O)CCNC(=O)[C@H](O)C(C)(C)COP(=O)(O)OP(=O)(O)OC[C@H]1O[C@@H](n2cnc3c(N)ncnc32)[C@H](O)[C@@H]1OP(=O)(O)O` [Undecanyl-CoA], for which the Ki in data set [1] (read-out: PA1618 Ki) stood at 3.4 ± 0.3 µM.

In data set [1], `CC(C)(COP(=O)(O)OP(=O)(O)OC[C@H]1O[C@@H](n2cnc3c(N)ncnc32)[C@H](O)[C@@H]1OP(=O)(O)O)[C@@H](O)C(=O)NCCC(=O)NCCSCC(=O)c1ccc(O)cc1O` [2,4-Dihydroxyphenacyl-CoA] had an inhibitory constant (Ki) of 12 ± 1 µM.

In data set [2], `CC(C)(COP(=O)(O)OP(=O)(O)OC[C@H]1O[C@@H](n2cnc3c(N)ncnc32)[C@H](O)[C@@H]1OP(=O)(O)O)[C@@H](O)C(=O)NCCC(=O)NCCSCC(=O)c1ccccc1` [Phenacyl-CoA] returned a Ki of 35 ± 5 µM.

“PA1618 (Pseudomonas aeruginosa PAO1; Q49A)”: in data set [3], the Km is 5.0 ± 0.3 µM, the kcat was 0.022 ± 0.003 s⁻¹ and the kcat/Km turned out to be 4400 M⁻¹ s⁻¹.

In data set [4], `CC(C)(COP(=O)(O)OP(=O)(O)OC[C@H]1O[C@@H](n2cnc3c(N)ncnc32)[C@H](O)[C@@H]1O)[C@@H](O)C(=O)NCCC(=O)NCCOC(=O)c1ccccc1` [Benzoyl-OdCoA] came in with an inhibition constant Ki of 19 ± 3 µM.

B1: PA1618 (Pseudomonas aeruginosa PAO1) (protein)
chain: MSLWRQTPDLEQLNASQKNSIGDLLGIRFEAFDDESLTASMPVDSRTHQPFGLLHGGASVVLAESLGSMASYLCVDTSQYYCVGLEVNANHLRGLRSGRVTAVARAIHLGRTTHVWDIRLSGDDGKPSCIARLTMAVVPLAGRAG
B1: the Km in data set [5] came out at 3.6 ± 0.3 µM; in [6], 2.7 ± 0.2 µM; in data set [7] it was 20 ± 2 µM; in data set [8], 2.1 ± 0.1 µM; in data set [9], 12 ± 1 µM. Moreover, the kcat turned out to be 9.3 ± 0.2 s⁻¹ in data set [5]; 2.5 ± 0.1 s⁻¹ in data set [6]; 0.11 ± 0.01 s⁻¹ in [7]; 0.55 ± 0.01 s⁻¹ in [8]; 56 ± 1 s⁻¹ in data set [9]. The kcat/Km in data set [5] worked out at 3.1e+06 M⁻¹ s⁻¹; in data set [6], 930000 M⁻¹ s⁻¹; in data set [7], 5200 M⁻¹ s⁻¹; in data set [8] it was 280000 M⁻¹ s⁻¹; in data set [9] it was 4.6e+06 M⁻¹ s⁻¹.
